The source of these data is article PMC11080044, “Contribution of a C-Terminal Extension to the Substrate Affinity and Oligomeric Stability of Aldehyde Dehydrogenase from Thermus thermophilus HB27” (Biochemistry, 2024).

The target in data set [1] is Q72KD3. Kind of data set: SEC; SE-HPLC (AdvanceBio SEC 300 Å), untreated protein injected directly after thawing, 0.5 mg/mL, 10 mM potassium phosphate buffer pH 8.0, room temperature; oligomeric states from a calibration plot, percent of peak area, triplicate. On the technique in general: Size exclusion chromatography separates by hydrodynamic size, large species first.

The target in data set [2] is Q72KD3. Kind of data set: SEC; SE-HPLC as in a1, after 15 min incubation at 65 °C and centrifugation at 10000 x g.
Data set [3] addresses Q72KD3. The data set is described as follows: SEC; SE-HPLC as in a1, after 10 min incubation at 65 °C and centrifugation at 10000 x g.
Data set [4] has as its target Q72KD3. The data set is described as follows: SEC; SE-HPLC as in a1, after 20 min incubation at 65 °C and centrifugation at 10000 x g.
Data set [5] deals with the molecule itself. Kind of data set: SEC; SE-HPLC (AdvanceBio SEC 300 Å), untreated protein injected directly after thawing, 0.5 mg/mL, 10 mM potassium phosphate buffer pH 8.0, room temperature; oligomeric states from a calibration plot, percent of peak area, triplicate.
Data set [6] deals with Q72KD3. The data set is described as follows: SEC; SE-HPLC as in a1, after 5 min incubation at 65 °C and centrifugation at 10000 x g.
Data set [7] deals with the molecule itself. Kind of data set: SEC; SE-HPLC (AdvanceBio SEC 300 Å) of ALDHTt-508 purified after a 15 min heat shock of the lysate at 65 °C; 50 µL of 0.5 mg/mL, percent of total peak area.

B1: Aldehyde dehydrogenase from Thermus thermophilus HB27, native (ALDHTt-native) (enzyme, UniProt Q72KD3 1-530, looked up)
chain: MRKAAGKYGNTLEFGHLVGGEEVLEGPLLERRNPSDREDVVARFPEADKDLVRKAALKAREAFAEWSRTPAPIRGQVLFNLVKILEREKPTLTRLMVREVGKTPKEAAGDVQEAIDTALFFASEGRRLYGQTVPSEMRDKELFTFRRPLGVVGIITAGNFPIAVPSWKLIPAVLTGNTVVWKPSEDAPTLSFVFAKLFEEAGLPPGVLNVVFGGGKGSTGQWMVELMDEGLFQKFAFTGSTQVGRWIGEVAGRNLIRPTLELGGKNPLVVMRDADLDLAVEGAWWSAFATGGQRCTSAGNILVDAPIYEEFKRRFLERVEATLVGNPLLHPEVTYGPFINERFFARWQEHYRVGEAEGARLLFGRGRITRENPYPRFLGDPEAGLYGWPTVWEVRPGTRLFTEEVFGPTINLVKVDGIEEAIAVANSTPYGLSSAIYTNHRHWAYLFKVGIRAGMTSINNATVGAEAHLPFGGVKASGNGGRESGIWVLEEYTYWHAVNEEYSGRLQLAQMDTGYVSPKAPTPWGEVLGL
notes: Aldehyde dehydrogenase ALDHTt of Thermus thermophilus strain HB27, UniProtKB Q72KD3, 530 amino acids, with its 30-residue C-terminal tail; pET22b(+) construct
Consider B1, for which the % dimer (SE-HPLC) in data set [1], in data set [2], in data set [3], in data set [4] and in data set [6] was 0% throughout. In addition, the % monomer (SE-HPLC) in data set [1], in data set [2], in data set [3], in data set [4] and in data set [6] was 0% throughout. Moreover, the % tetramer (SE-HPLC) turned out to be 98.8% in data set [1]; 93.7% in data set [2]; 94.9% in data set [3]; 93.2% in data set [4]; 97.7% in data set [6]. Moreover, the stoichiometry N (in general, a count of units in the complex or per binding partner) in data set [5] was found to be 4.

B2: ALDHTt-508, aldehyde dehydrogenase from Thermus thermophilus HB27 with a 22-amino acid truncation of the C-terminus (enzyme, UniProt Q72KD3 1-508, looked up)
chain: MRKAAGKYGNTLEFGHLVGGEEVLEGPLLERRNPSDREDVVARFPEADKDLVRKAALKAREAFAEWSRTPAPIRGQVLFNLVKILEREKPTLTRLMVREVGKTPKEAAGDVQEAIDTALFFASEGRRLYGQTVPSEMRDKELFTFRRPLGVVGIITAGNFPIAVPSWKLIPAVLTGNTVVWKPSEDAPTLSFVFAKLFEEAGLPPGVLNVVFGGGKGSTGQWMVELMDEGLFQKFAFTGSTQVGRWIGEVAGRNLIRPTLELGGKNPLVVMRDADLDLAVEGAWWSAFATGGQRCTSAGNILVDAPIYEEFKRRFLERVEATLVGNPLLHPEVTYGPFINERFFARWQEHYRVGEAEGARLLFGRGRITRENPYPRFLGDPEAGLYGWPTVWEVRPGTRLFTEEVFGPTINLVKVDGIEEAIAVANSTPYGLSSAIYTNHRHWAYLFKVGIRAGMTSINNATVGAEAHLPFGGVKASGNGGRESGIWVLEEYTYWHAVNEEYSGRLQL
notes: Aldehyde dehydrogenase ALDHTt of Thermus thermophilus strain HB27, UniProtKB Q72KD3, without the last 22 amino acids of the 530; also called truncated mutant
For the protein B2, the % dimer (SE-HPLC) in data set [1] was determined as 1.71%; in data set [2], 0%; in data set [3], 0%; in data set [4], 0%; in data set [6], 0%. Besides, the % monomer (SE-HPLC) was determined as 2.5% in data set [1]; 0.55% in data set [2]; 0.79% in data set [3]; 0.71% in data set [4]; 0.87% in data set [6]. The % tetramer (SE-HPLC) was found to be 90% in data set [1]; 95.8% in data set [2]; 93.1% in data set [3]; 91.4% in data set [4]; 95.4% in data set [6]. Besides, the “% of fully folded protein in the tetrameric peak” value in data set [7] was determined as 6.4 ± 1.5%. For the same protein, the “stoichiometry N” value in data set [5] was 4.
